From the RNAGym collection of RNA variant scans (doi:10.1073/pnas.2313332121)
Variants at the floor of the assay were thinned out.

B1: TPR 5TU (parent)
chain: GGAUCUUCUCGAUCUAACAAAAAAGACAAAUCUGCCACAAAGCUUGAGAGCAUCUUCGGAUGCAGAGGCGGCAGCCUUCGGUGGCGCGAUAGCGCCAACGUUCUCAACUAUGACACGCAAAACGCGUGCUCCGUUGAAUGGAGUUUAUCAUG

Variants of: B1
Test: polymerase ribozyme fitness, log enrichment relative to wild type (log ratio); higher = more active; in vitro selection for triplet polymerase activity
How it was run: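 Mutant libraries were PCR-built and transcribed for each subunit of a heterodimeric triplet polymerase ribozyme and selected for one round in triplicate at −7 °C, frozen, before gel excision of extended constructs and streptavidin-bead capture. Input and output libraries were Illumina-sequenced, keeping genotypes with ≥10 input reads and ≥1 read per output. Fitness is a logarithmic ratio of genotype to wild-type enrichment, in base 2, using inverse-variance-weighted replicate averages.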

Variant	polymerase ribozyme fitness (log ratio)
C54A G92U U135G	-4.08
U61A C87U	-2.83
G84A U134C	-0.573
C57G G86C	-3.04
U4A U45A C57U A91C	≤ -4.2
G50C	-2.52
C57G G86A	-1
G58U G152U	-2.71
C76A U78C C103G	≤ -4.2
A29U U111C C114G G140U	≤ -4.2
G86C U101G G124U G152A	-4.15
C93A U148G G152U	≤ -4.2
G86U G88C A119C U127A U144G	≤ -4.2
G124A G136A	-0.107
C8A A52C C87A	≤ -4.2
U33C C69U	-0.0558
U31C A60U A110G C118G U144C	-3.59
C32U A40U U56C C85U U90A C114U	-4.06
U31A U135G G143C	-3.93
G83C G133A	-3.62
A12G U13A A19C G92C C99U G124C U148G G152U	≤ -4.2

Variant	polymerase ribozyme fitness (log ratio)
A60G G84A C118A	-0.875
C85A C103G A147U	-2.48
A3C C76U C96A	-0.525
G50C C51A	-0.896
G59A U78A G92U C96A C114U A121U	≤ -4.2
C5U G84A	0.439
C131G G136U G141U G143U	≤ -4.2
C51G G84U	-3.11
U53C C93G C99G C118A G126A U146G	≤ -4.2
G59C U127G U130C	≤ -4.2
C5U G92A	-1.32
A73C C87G G141C	≤ -4.2
G94C C129G	-3.39
C63A G117U A119C	0.257
A89C A150G	-0.921
A3G C14G U55A U56A C85U	-4.18
A37C G83A A122U C131U U134C	0.318
U15C A21C G48C C93U U146G	-0.835
C103U A115G	-1.14
A23U C51U C93U G100U C123G	≤ -4.2
A47C C85A C96U A97U	≤ -4.2

Variant	polymerase ribozyme fitness (log ratio)
A30U G50C U56A A66C G141A	≤ -4.2
A19G G50A G67A A91U C93A	≤ -4.2
C38U A107C	-3.45
U33A U44A G46U G59A C93G C103U U104A U135A C149G	≤ -4.2
C14U C18A A20C C93A G136A A142C	-2.57
C10U U33G C38G U44G A52G C87U C108U C118U	≤ -4.2
A16C U31C A37C A40C C95G G100A C114U	≤ -4.2
U4G C87A	≤ -4.2
A24U A29G A52G A91U G126U U144G	≤ -4.2
A37G C96U C105G	-3.63
A19U C32A G84A G128U C131U A137G	-3.73
A12G C93A	-2.26
G11C G46C G59C G92U	-3.55
C27U G86A U145A G152A	≤ -4.2
U55G C85A	-2.4
C99G A137C A142G	-3.71
C10A A24C G71A U77G G94A C99A C125U G140C	≤ -4.2
A24G C69A A91U A138U G143U	≤ -4.2
A28G A30U C32A C85A C95U A115U	≤ -4.2
A17U C93U	-1.07
C43A U53G A64U C95U A110U A150C	≤ -4.2

Variant	polymerase ribozyme fitness (log ratio)
A17C A23U G59U G84A U90C U151A	≤ -4.2
A49U G136A G141A	-0.805
A17G A21G C96G	0.392
A21C G34A C43U A60C A64G A91U	≤ -4.2
G71U C116U	-2.4
A29C G59U G92C C96A A107G C125U U127G	≤ -4.2
C35U G50U G59C A60U C85A G94C G141A	≤ -4.2
G83U G94A	-0.328
U9A A23G G68C C79U G94C C105G G143A	≤ -4.2
A16U C27G A28U U31C G74U U82A	≤ -4.2
A89C C123A G128U	-3.31
A23U G46U C87U G88U A119G A120C G133U	≤ -4.2
U4C C10A A12U U53A G88C C96A	≤ -4.2
A23U A29C A119U	≤ -4.2
C38U G83U C149G A150C	≤ -4.2
G58A A73C	-1.62
C51G A73G C79G C87G G140C U144A	≤ -4.2
A19G G42U G50U A52U C75U G88U G92C G143A	≤ -4.2
U45C A49C G70C G83C A137C U144C	≤ -4.2
C27A G86U U144A	≤ -4.2
